# Test results: the supplement of paper PMC9170038
# Test system: K4 kissing-loop RNA reporter
# Experiment: apparent KD of K4 kissing-loop reporter; higher = weaker reporter binding
# Settings: Eterna round: R107; input ligand: none
# Protocol: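 RNA-MaP round R107: designed RNA switches with theophylline, tryptophan, arginine or FMN aptamers are transcribed on-chip within common flanks. They are titrated with a labelled K4 kissing-loop RNA reporter in RNA-MaP buffer (100 mM Tris pH 7.5, 80 mM KCl, 4 mM MgCl2), without ligand or with the indicated ligand. Median apparent KD per design.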
# 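Also: bound reporter read as fluorescence of individual clusters on recovered sequencing chips by microscopy, with normalized cluster intensities fitted with a binding model.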
row,Sequence,apparent KD of K4 kissing-loop reporter [nM]
1,AUGUACAUUCUCAGUGAUGUUGGGUUGUAACGAGGACCGGUACGGCCGCCACUCGGGAUGUGGUAUAUAGAUGUAUGUGUAGCAU [skye_SS_TA],446
2,CCUAUCUCAUACGAUACCAGUCUACGAUAUUUUAUCGUUGCCAUCACCGAGUGAUGUUCGGACCCUUGGCAGCGUAUGGGAUAGG [Ex Theophylline B K4 5],355
3,UGCUUUAUCAGAAGGAGCGGGUUGUUCAUAAUAAUAAUCAGUGAUGUUGAUAUAUGAUGAUUCCAGGUAGGUCGCUGAUAUAGCU [KL-XARG-B2],273
4,UAAUAAAUUCCAGCUAUAUCACUCUUCGAAGGAGCGGACGAAAGUCCAGGUAGGUCGCGAAGAGUGAUGUUCUUUGCGGCGCUGG [Omei KL Arginine A Exc A v5],75.4
5,GCUAGGAUGGCAGGAUAUAGUUCGUGAGUGAUGUUCAAAGAACUAAGAGGGACACCUCAUUCUAAACUAGAAGGGCCAUCCUAGC,276
6,AUAAUUAUAUAGAAAUAUAUAAUUAUAUAACGAGGACCGGUACGGCCGCCACUCGUGCCGGGCAUAAAAUGAGUGAUGUUCAUGU [KL-XTryp-A7 #analogue],212
7,UGUAUGUGAUGUGAUACCAGUGAAGAGCCAGUGAUGUUGGUAGAACUGGUAUAUAAAUAACACCCUUGGCAGCACAAUCACGUAC [whbob_Ex_Theo_B_sa99],286
8,AGCCGUCUAAGUGAUGUUUAGGCAUGUCAGCGAGGACCGGUACGGCCGCCACUCGUGCUAUUGAGAUUUCGGGUAGCCCACGUAG [theeternabot_sameState_KL_Trp_A_20],271
9,GUGAAGGAGCUGCAGUGAUGUUGCAGAAACUAGGAUAUCAGGAAACUGAGAAGGAGUCAACUCCUUCACCUAAAUACUGCAGAAA [KL-SSFMN-A23],158
10,AUAAUAAAGACGGCCGCCACUGAGAGUAGUGAUGUUACUCUUUUCCUUUAGAAAUAAUAUUUUAUCAGGACCGGGUUUUUUGAAU [JR_Nu_ExcTryptoB_Sub026],84.8
11,CAUACGCAUGGAGGAUAUGAGAUUUCUCAUAUUAUUUAAUAUUCUCAGUGAUGUUGAGAAUUAAACUCAGAAGGCCAUGUGUAUG [Ex FMN B 4],164
12,ACGUAGUUCUAGGAUACCAGCCAAGGAGGGUAGGACAAAAGUCCUGUAGCCAGUGAUGUUGGCCCUUGGCAGCCUAGAACUACGA [Omei KL Theo B Exc B v3],138
13,AGGUACUACGGAAGGAGCGCACCAGUGAUGUUGGUGUGUGACCGUGACAUGGCAGUCAAGGUGCAGGUAGGUCGCCGUGGCCUUU [Anatartibe],146
14,UGACUACAAAAGGAAUAAUCCUAGUGAUGUUAGGAUAUGCUGAUAAGCAGAAGGAACGGAGAUCGAAAGAUCUCAAAUGUAGUCU [whbob_Ex_FMNA__2th191],82.9
15,UCGGCAAAGUCGGCCGCCACUCCGGGCCCUAUAAAUGGGCGCAGUGAUGUUGCGGCUAGGCCUCUGAGGACCGGGACUUUGUAAA [Atordied],54.5
16,UUGAGCCUGACGAAAGUCAGGCUCUGCGAGCGAGGACCGGUACGGCCGCCACUCGGUGCAGUGAUGUUGCAUGGCCGCAAGGCCG [#2 Exclusion - Tryptophan A Attempt #14 (HarryS)],289
17,ACUAUCGAAAGAUAGUUCCCAGAGCUAGUAGAGGAUAUCUGGAAACAGAGAAGGCUACAAGAGUGAUGUUCUUCUAGCUUUGGGA,316
18,CGUUUAUAGCAGGAUACCAGUACGGAUAAAGUACGUUAAUAGUAGAGUGAUGUUCUAAAGUACCCUUGGCAGCUUAGAGUGAGUG [ExTheophylB.O],112
19,GCAGUGAUGUUGCGGAUGUACAGUGGCGUGCGAGGACCGGUACGGCCGCCACUCGUACAGAGCCAGCUAAUACAUCGAUUGGUGA [whbob_SS_Tryp_A_m7],206
20,AGUGAUGUUGUGUUAUGCAAGGGAAGUGAUCGAGGACCGGUACGGCCGCCACUCGAGUGAUGAGUGAGUGAUGUUUGUUUAGGGA [ffgmullin],933
21,GGAAAGCCAGUGAUGUUGGCAUAAACUGAAGGAGCGCGUGAAAACGCAGGUAGGUCGCAGAACCUUGCCAACUAUAUUAUUUACC [Ex Arginine A K4 21],160
22,GCAGUGAUGUUGCUGAUGUACAGUGGGAUACGAGGACCGGUACGGCCGCCACUCGUACAGAACUUAUUAAUACAUCGAUAAGUGA [XIV],710

# Same assay, conditions: Eterna round: R107; input ligand: theophylline 20 uM
row,Sequence,apparent KD of K4 kissing-loop reporter [nM]
1,UGUGUUGUUUUGAUGUUUGUUGUAAAAUGGCAGGAUAUCGUAGAGGCGAGAAGGGCUUUUAUGCGUUAUGAGUGAUGUUUGUAGG [zvvczmullin],340
2,UGACUGGACUGAAGGAGCGCUAAACUCCUAGUGAUGUUAGGAUAACGAGACAAAGUCUCGAGGCAGGUAGGUCGCAGUCUAGUCU,137
3,UCCUGCAAUCGACCACGAAAGUGGAUGGAUACCAGAGUCGAAAGACUCCCUUGGCAGCCAGUGAUGUUGGAAGCAGGUAAAUAAA [#SwitchBubble 17 #K4Late],288
4,UGUCAUUGGUCUGAUACCAGUUGAUAAACUGGAGUGAUGUUCCAAGAACGAGAAACUCGCAACCCUUGGCAGCAGACCGAUGACU [TheoBS 17 #SwitchBubble 13 #StaticStem],400
5,AUGCGUGAUGCUCAAAGAGUAUCACCCGAUACCAGUAUGGAAACAUACCCUUGGCAGCGGGUAACUGCCCAGUGAUGUUGGACGC [Theophylline A K4 10],288
6,AAAUAUUCGAGUGAUGUUCGAAUAAUAUCAGAGGAUAUGCAUAAAAGCAGAAGGCUGUAUUACUUUUUGUUACGAAAUUUUAUAA [JR_SSFMNA_Sub020],118
7,GGACAAGCAUUAGGAUAUAUAGAGCGAAACGCAAUUGAGUGAUGUUCAAAAGCAUAGGGCGAGGAAAUAGAAGGAAUGCACGGGC [Default title],151
8,UGAACUGUCUGCGAUACCAGCUAAGGAGUGAUGUUCCGGCUCGACGAAACGUCGAGCCAUAGCCCUUGGCAGCGCAGACAGUUCA [#28 K4 Theophylline B Same State],721
9,UCGGAGGGAGCGGCCGCCACUGUAUUACCUCGACGAACGCCGGUUUUCAUGAAGUGAUGUUUCGCCAGGACCGGGCUAAUCUGAG [theeternabot_exclusion_KL_Trp_B_46],217
10,AGGUGCUACGGAAGGAGCGCACCAGUGAUGUUGGUGUGUGACCGUGACAUGGCAGUCAAGGUGCAGGUAGGUCGCCGUGGCCUUU [Geeseris],138
11,AAUUCAGUGAUGUUGGAAGGCAGGAGGGAUACCAGCGGAAAUAAACGCCCUUGGCAGCCCAAAUAUCCCAAAUAGAUAAUAAUUU [Same State - Theophylline A (Freestyle 1)],607
12,UUGUUUGGUUGAGAGGUUGGGCGAGAUGAUACCAGUAUAGUAUAGUACCCUUGGCAGCAUAGGAGAGAUAUAGUGAUGUUGUAUG [SSTheophA.V],372
13,AAAUAGAUCAGUCACCCAGUGAUGUUGGAAGGAGCGUGCGAAAGCACAGGUAGGUCGCCGAAAUAAAAUUGGCUGAUCAAAAUAA,308
14,CCGGGCGGCCGAAGGAGCGGGCGGGCCCGAGUGAUGUUCGGGUGGACCGUGAGGUCCGGUGCCCAGGUAGGUCGCGGUUCCGCCC [#2 Same State - Arginine B Attempt #7 (HarryS)],115
15,UGACAUUGCUCAGAUACCAGACCUGAGGAUCACCCGGGUGCCAAAACGUACUAAAUAAAGGUCCCUUGGCAGCUGAGCAAUGUCU [TheoBX 13],49.5
16,ACAUUAGCGAGUGAUGUUCGCUAAGACGAAGGAGCGCUCGCGAGAGCAGGUAGGUCGCGUCUAGUGUCACUGUACUAAAUAGUGA [Arg A SS t12],183
17,AUUAUAAAGACGGCCGCCACUGAGAGUAGUGAUGUUACUCUUUUCCUUUAGAUAUUAUAUUUUAUCAGGACCGGGUUUUUUGAUU [JR_Nu_ExcTryptoB_Sub025],88.1

row,Sequence,apparent KD of K4 kissing-loop reporter [nM]
1,AGGUUUUGAUUAGGAUAUGCACUGACGACGAGAAUAUAGUGAUGUUAUAUAAUACGAAUUAGUAGAGUAGAAGGGAUUGAGGUUU [SSFMNB.X],390
2,GGAUCCACCAGUGAUGUUGGAGUAAUCUCCAAGGAUAUGACGAAAGUCAGAAGGUGGUAAAUAGACGUCAAAGACGUCGGAUCCA [FmnA 22 #SwitchBubble #K4Early],234
3,AUCUAUGAGCGAGGAUAUGCAUAACGCGAGUGAUGUUCGCGAUGUGGGCGUAAUUGAUAAAAUGAAGCAGAAGGCGCACUCAUGA [Exclusion - FMW B / B],155
4,UGUGUUUACCUGACUCAGUGAUGUUGAGAAGGAGCGUGCUAAGGCACAGGUAGGUCGCUCAACCUAAAUUCAGGUGAGCACUAAA,274
5,UUACUGCCCAGUGAUGUUGGGUAUCGGCGGCGAGGACCGGUACGGCCGCCACUCGGCGCACAGGCGGAGUGAUGUUUCGCUUAAA [Same State Tryptophan A GF 12],631
6,AUGUACAUUCUCAGUGAUGUUGGGUUGUAACGAGGACCGGUACGGCCGCCACUCGGGAUGUGGUAUAUAGAUGUAUGUGUAGCAU [skye_SS_TA],512
7,CCUAUCUCAUACGAUACCAGUCUACGAUAUUUUAUCGUUGCCAUCACCGAGUGAUGUUCGGACCCUUGGCAGCGUAUGGGAUAGG [Ex Theophylline B K4 5],544
8,UGCUUUAUCAGAAGGAGCGGGUUGUUCAUAAUAAUAAUCAGUGAUGUUGAUAUAUGAUGAUUCCAGGUAGGUCGCUGAUAUAGCU [KL-XARG-B2],256
9,UAAUAAAUUCCAGCUAUAUCACUCUUCGAAGGAGCGGACGAAAGUCCAGGUAGGUCGCGAAGAGUGAUGUUCUUUGCGGCGCUGG [Omei KL Arginine A Exc A v5],132
10,GCUAGGAUGGCAGGAUAUAGUUCGUGAGUGAUGUUCAAAGAACUAAGAGGGACACCUCAUUCUAAACUAGAAGGGCCAUCCUAGC,421
11,AUAAUUAUAUAGAAAUAUAUAAUUAUAUAACGAGGACCGGUACGGCCGCCACUCGUGCCGGGCAUAAAAUGAGUGAUGUUCAUGU [KL-XTryp-A7 #analogue],193
12,UGUAUGUGAUGUGAUACCAGUGAAGAGCCAGUGAUGUUGGUAGAACUGGUAUAUAAAUAACACCCUUGGCAGCACAAUCACGUAC [whbob_Ex_Theo_B_sa99],320
13,AGCCGUCUAAGUGAUGUUUAGGCAUGUCAGCGAGGACCGGUACGGCCGCCACUCGUGCUAUUGAGAUUUCGGGUAGCCCACGUAG [theeternabot_sameState_KL_Trp_A_20],125
14,GUGAAGGAGCUGCAGUGAUGUUGCAGAAACUAGGAUAUCAGGAAACUGAGAAGGAGUCAACUCCUUCACCUAAAUACUGCAGAAA [KL-SSFMN-A23],157
15,AUAAUAAAGACGGCCGCCACUGAGAGUAGUGAUGUUACUCUUUUCCUUUAGAAAUAAUAUUUUAUCAGGACCGGGUUUUUUGAAU [JR_Nu_ExcTryptoB_Sub026],79.6
16,CAUACGCAUGGAGGAUAUGAGAUUUCUCAUAUUAUUUAAUAUUCUCAGUGAUGUUGAGAAUUAAACUCAGAAGGCCAUGUGUAUG [Ex FMN B 4],181
